This series deals with the molecule itself. Description: X-ray crystallography, crystallographic symmetry applied (self-association, homotrimer).

One protein from US20150031112A1 (SHIRE HUMAN GENETIC THERAPIES, published 2015) can be followed below.

B1: NAGLU-kif (recombinant human alpha-N-acetylglucosaminidase expressed in HT1080 cells treated with kifunensine) (enzyme)
chain: DEAREAAAVRALVARLLGPGPAADFSVSVERALAAKPGLDTYSLGGGGAARVRVRGSTGVAAAAGLHRYLRDFCGCHVAWSGSQLRLPRPLPAVPGELTEATPNRYRYYQNVCTQSYSFVWWDWARWEREIDWMALNGINLALAWSGQEAIWQRVYLALGLTQAEINEFFTGPAFLAWGRMGNLHTWDGPLPPSWHIKQLYLQHRVLDQMRSFGMTPVLPAFAGHVPEAVTRVFPQVNVTKMGSWGHFNCSYSCSFLLAPEDPIFPIIGSLFLRELIKEFGTDHIYGADTFNEMQPPSSEPSYLAAATTAVYEAMTAVDTEAVWLLQGWLFQHQPQFWGPAQIRAVLGAVPRGRLLVLDLFAESQPVYTRTASFQGQPFIWCMLHNFGGNHGLFGALEAVNGGPEAARLFPNSTMVGTGMAPEGISQNEVVYSLMAELGWRKDPVPDLAAWVTSFAARRYGVSHPDAGAAWRLLLRSVYNCSGEACRGHNRSPLVRRPSLQMNTSIWYNRSDVFEAWRLLLTSAPSLATSPAFRYDLLDLTRQAVQELVSLYYEEARSAYLSKELASLLRAGGVLAYELLPALDEVLASDSRFLLGSWLEQARAAAVSEAEADFYEQNSRYQLTLWGPEGNILDYANKQLAGLVANYYTPRWRLFLEALVDSVAQGIPFQQHQFDKNVFQLEQAFVLSKQRYPSQPRGDTVDLAKKIFLKYYPRWVAGSW
modifications: N-linked high mannose glycans at N261, N272, N435, N503, N526 and N532 (numbered as amino acids 24-743)
notes: There is one molecule in the asymmetric unit, and the trimer is generated by crystallographic symmetry; also called NAGLU24-743; Naglu-kif R3
In the case of B1, the binding result was “binds”.
